Results as given in article PMC7341897 (Nature cell biology, 2019).

Tests used:
Survivin = Survivin (UniProt O15392); assay: fluorescent peptide partitioning into ISB coacervates; settings: reference: unmodified H3 peptide; sites T3
[1] = target: INCENP^1-58-Survivin-Borealin (ISB) complex, wild type (UniProt Q9NQS7 1-58; O15392 1-142; Q53HL2 1-280); assay: partitioning of a fluorescent client into preformed coacervates
[2] = target: ISB complex lacking amino acids 139-160 of Borealin (UniProt Q9NQS7 1-58; O15392 1-142; Q53HL2 1-280, Δ139-160); assay: as above

binding result [2] | Molecule | binding against the reference (Survivin) | binding result [1]
– | histone H3 (synthetic N-terminal peptide) (from UniProt P68431) H3pT3 peptide | stronger | –
binds | hSgo1^1-112 labeled with CF555 (domain or fragment, human, UniProt Q5FBB7 1-112, looked up, CF-555 label (Mix-n-Stain CF-555 labeling kit)) MAKERCLKKSFQDSLEDIKKRMKEKRNKNLAEIGKRRSFIAAPCQIITNTSTLLKNYQDNNKMLVLALENEKSKVKEAQDIILQLRKECYYLTCQLYALKGKLTSQQTVEPA | – | binds
